Experimental data taken from patent US20230192794A1.

Target: IL10Rβ on human cell lines (HT-29, HEK-293T) (human (cells stated as human)) (UniProt Q08334)
Assay: cell-based or functional assay

Sequence of IL10Rβ on human cell lines (HT-29, HEK-293T) (human (cells stated as human)) (Q08334 20-325): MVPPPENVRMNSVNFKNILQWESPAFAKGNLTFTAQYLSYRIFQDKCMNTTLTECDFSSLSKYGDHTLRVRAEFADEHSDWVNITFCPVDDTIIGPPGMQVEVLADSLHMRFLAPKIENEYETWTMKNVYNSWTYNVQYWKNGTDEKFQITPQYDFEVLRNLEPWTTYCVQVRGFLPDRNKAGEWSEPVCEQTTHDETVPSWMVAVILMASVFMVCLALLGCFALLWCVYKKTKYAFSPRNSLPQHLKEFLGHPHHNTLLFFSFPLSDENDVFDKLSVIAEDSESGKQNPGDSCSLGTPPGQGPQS

Emax for STAT1 (phospho-Y701-STAT1) in HT-29 cells, phospho-flow (% of the WT IL-22 Emax): 30 | Emax for STAT3 (phospho-Y705-STAT3) in HT-29 cells, phospho-flow (% of the WT IL-22 Emax): 100
Substance: 22-B3 (mouse IL-22 S45E/Q116A/K124A/Q128A) (from UniProt Q9JJY9 34-179) (ligand)
